Values quoted from earlier work, collected in article PMC3971948.

Target: Asp85 (UniProt position 98, WAQYADWLFTT)
Details: Initial unphotolysed BR state of the R82Q mutant

In the case of “Bacteriorhodopsin R82Q (Halobacterium salinarum; R82Q)”, the pKa is given as “up to ∼7”.
